Test results published in paper PMC5376753.

Molecular target: activin type II B receptor (ActRIIB) (human (endogenous in HEK293T)) (UniProt Q13705)
UniProt Q13705, sequence (Q13705 19-512): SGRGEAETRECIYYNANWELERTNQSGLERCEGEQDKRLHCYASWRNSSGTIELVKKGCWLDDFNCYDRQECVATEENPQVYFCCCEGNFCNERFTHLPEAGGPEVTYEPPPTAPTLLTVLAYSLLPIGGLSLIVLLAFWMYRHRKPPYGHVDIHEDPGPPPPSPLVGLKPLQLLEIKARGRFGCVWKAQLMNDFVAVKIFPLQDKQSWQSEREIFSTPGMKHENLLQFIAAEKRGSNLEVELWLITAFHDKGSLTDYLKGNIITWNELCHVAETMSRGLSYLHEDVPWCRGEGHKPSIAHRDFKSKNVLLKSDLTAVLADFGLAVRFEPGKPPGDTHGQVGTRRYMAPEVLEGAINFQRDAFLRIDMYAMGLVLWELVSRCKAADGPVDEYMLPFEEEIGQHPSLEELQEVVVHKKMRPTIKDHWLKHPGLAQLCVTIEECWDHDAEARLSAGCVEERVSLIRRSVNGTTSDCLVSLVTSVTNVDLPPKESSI

p-SMAD2/3 AlphaLISA response of HEK293T cells after 1 h of ligand; potency of the ligand with 100 nM anti-ActRIIB (murinized BYM338) applied overnight against 0 nM antibody [fold]	Molecule
> 100	recombinant myostatin (Mstn) (from UniProt O14793 267-375) (ligand)
100	recombinant growth and differentiation factor 11 (GDF11) (ligand) NLGLDCDEHSSESRCCRYPLTVDFEAFGWDWIIAPKRYKANYCSGQCEYMFMQKYPHTHLVQQANPRGSAGPCCTPTKMSPINMLYFNDKQQIIYGKIPGMVVDRCGCS
> 100	recombinant activin A (ligand) GLECDGKVNICCKKQFFVSFKDIGWNDWIIAPSGYHANYCEGECPSHIAGTSGSSLSFHSTVINHYRMRGHSPFANLKSCCVPTKLRPMSMLYYDDGQNIIKKDIQNMIVEECGCS
